Results reported in article PMC12710124, “Pleomorphism in Wild-Type and Engineered PP7 Virus-Like Particles” (Small (Weinheim an der Bergstrasse, Germany), 2025).
“And” between values parts separate entries of the source, which are not always exact repeats. Identical values can stand only once. Like-named read-outs stand apart in the source and are kept apart here.

Experiments:
Test in all cases: cryo-EM structure; 3D reconstruction of purified VLPs self-assembled in the bacterial expression host; closed cages (T = 3, T = 4, D5, D5E, C2, C3) and tubes
[1] = target: PP7-AY-PP7, PP7 coat protein dimer with AY linker (Pseudomonas phage PP7)
[2] = target: PP7-AY-PP7, PP7 coat protein dimer with AY linker (Pseudomonas phage PP7); remark: listed apart in the source
[3] = target: the molecule itself

For “PP7-AY-PP7, PP7 coat protein dimer with AY linker”, the stoichiometry N [1] was 102 copies and the stoichiometry N [2] was 87 copies.

B1: PP7 coat protein (wild-type, monomeric) (natural protein)
chain: MSKTIVLSVGEATRTLTEIQSTADRQIFEEKVGPLVGRLRLTASLRQNGAKTAYRVNLKLDQADVVDCSTSVCGELPKVRYTQVWSHDVTIVANSTEASRKSLYDLTKSLVATSQVEDLVVNLVPLGR
notes: Self-assembles in the expression host into VLPs; also called PP7 CP; PP7 capsid protein; source: bacterial expression host (E. coli), recombinantly expressed, purified as VLPs
With B1 the “stoichiometry N” value [3] was 150 coat proteins and 174 copies and 204 copies.
